Here are results for four substances from publication PMC4133399.

Experiment [1] addresses GpA G83I TMD (LexA-TMD-MBP chimera). Description: GALLEX assay (β-gal activity of LexA-TMD-MBP chimera proteins). Conditions: n = 3; strong dimerization results in low β-gal activity; parent: est. 20; read off a plot.
The target in experiment [2] is NBD-labelled gp41 TMD peptide (HIV-1). Put plainly: FRET or BRET; NBD-labelled gp41 TMD or mutant peptide (donor, 0.1 µM) in PC∶Chol 9∶1 LUVs, titrated with Rho-labelled TLR2 TMD peptide at 1∶40, 1∶20, 1∶10 and 1∶1 acceptor∶donor; decrease of donor emission at 530 nm. Background: BRET reads energy transfer from a luciferase to a nearby fluorophore.
Experiment [3] deals with NBD-labelled gp41 mutant peptide (HIV-1). The experiment is described as above.
Experiment [4] deals with TLR2 protein of RAW264.7 murine macrophages (mouse (endogenous in RAW264.7)) (UniProt Q9QUN7).
UniProt Q9QUN7, sequence (Q9QUN7 25-784): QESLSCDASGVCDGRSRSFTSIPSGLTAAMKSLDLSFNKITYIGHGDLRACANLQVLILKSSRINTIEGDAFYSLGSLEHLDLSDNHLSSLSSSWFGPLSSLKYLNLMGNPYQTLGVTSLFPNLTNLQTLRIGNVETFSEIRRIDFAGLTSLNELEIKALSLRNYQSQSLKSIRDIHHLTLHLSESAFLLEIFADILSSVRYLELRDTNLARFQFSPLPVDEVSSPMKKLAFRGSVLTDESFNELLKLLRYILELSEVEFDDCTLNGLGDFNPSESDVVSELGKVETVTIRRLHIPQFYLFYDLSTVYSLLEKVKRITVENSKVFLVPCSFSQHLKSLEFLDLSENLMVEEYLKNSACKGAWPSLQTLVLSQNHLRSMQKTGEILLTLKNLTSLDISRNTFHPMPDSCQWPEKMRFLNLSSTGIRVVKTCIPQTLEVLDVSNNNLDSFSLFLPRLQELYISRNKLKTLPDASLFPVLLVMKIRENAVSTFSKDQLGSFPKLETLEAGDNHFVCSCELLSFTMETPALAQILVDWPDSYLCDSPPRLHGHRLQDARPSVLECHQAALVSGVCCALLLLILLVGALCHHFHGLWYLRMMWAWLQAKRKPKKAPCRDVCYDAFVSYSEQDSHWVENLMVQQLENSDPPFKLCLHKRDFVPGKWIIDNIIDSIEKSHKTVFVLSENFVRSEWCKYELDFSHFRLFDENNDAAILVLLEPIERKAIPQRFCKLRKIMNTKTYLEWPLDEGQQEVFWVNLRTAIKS
Experiment [5] shares this target. The source holds these as a separate data set.
The target in experiment [6] is LexA-TMD-MBP chimera protein with the TLR2 TMD (GALLEX) (UniProt O60603). Description: GALLEX assay (β-gal activity of LexA-TMD-MBP chimera proteins). Conditions: n = 3; strong dimerization results in low β-gal activity; parent: est. 48; read off a plot.
UniProt O60603, sequence (O60603 21-784, stated change not applied): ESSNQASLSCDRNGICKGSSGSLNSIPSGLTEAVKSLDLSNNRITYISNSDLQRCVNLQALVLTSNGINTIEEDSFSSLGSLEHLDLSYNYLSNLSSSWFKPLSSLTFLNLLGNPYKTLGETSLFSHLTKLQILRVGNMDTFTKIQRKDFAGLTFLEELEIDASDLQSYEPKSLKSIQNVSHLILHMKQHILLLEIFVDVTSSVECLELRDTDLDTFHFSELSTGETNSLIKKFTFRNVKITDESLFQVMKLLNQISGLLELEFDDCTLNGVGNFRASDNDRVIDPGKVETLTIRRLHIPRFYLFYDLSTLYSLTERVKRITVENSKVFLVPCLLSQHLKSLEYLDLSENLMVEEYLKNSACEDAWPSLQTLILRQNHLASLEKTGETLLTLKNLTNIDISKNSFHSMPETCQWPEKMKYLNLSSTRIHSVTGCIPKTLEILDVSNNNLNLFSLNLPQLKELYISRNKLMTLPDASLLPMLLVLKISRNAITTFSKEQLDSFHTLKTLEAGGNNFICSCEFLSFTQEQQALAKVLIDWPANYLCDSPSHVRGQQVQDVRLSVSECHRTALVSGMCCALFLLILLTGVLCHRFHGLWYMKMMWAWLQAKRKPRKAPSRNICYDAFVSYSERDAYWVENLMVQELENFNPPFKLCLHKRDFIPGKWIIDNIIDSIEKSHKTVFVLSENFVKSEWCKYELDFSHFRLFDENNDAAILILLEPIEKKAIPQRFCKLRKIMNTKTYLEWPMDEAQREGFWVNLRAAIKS

In the case of “LexA-TMD-MBP chimera protein with the Glycophorin A (GpA) TMD (GALLEX) G83I”, the response in experiment [1] was found to be 100%. Take Rho-labeled TLR2 TMD peptide: the decrease of the NBD donor emission at 530 nm (FRET) at 1∶1 ratio in experiment [2] is greater than 60%. In addition, the decrease of the NBD donor emission at 530 nm (FRET) in experiment [3] was less than 25%. In experiment [4], unlabeled WT gp41 TMD peptide registered an MCP1 mRNA expression in LTA-activated RAW264.7 cells (real-time PCR), decrease against non-treated cells of 45% and a TNFα mRNA expression in LTA-activated RAW264.7 cells (real-time PCR), decrease against non-treated cells of 72%. Moreover, the ERK1,2 phosphorylation in RAW264.7 cells 20 minutes after LTA, cells pre-treated with the peptide for 2 hours (decrease of p-ERK band intensity) in experiment [5] is greater than 50%. On to “LexA-TMD-MBP chimera protein with the gp41 wild type TMD (GALLEX) (from UniProt P04578) gp41 mutant”, for which, in experiment [6], the response came out at 68%.
